Measurements published in article PMC6182170, “A protein–protein interaction underlies the molecular basis for substrate recognition by an adenosine-to-inosine RNA-editing enzyme”.

Molecular target: T1, ADR-1 WT (Caenorhabditis elegans, UniProt Q9U3D6 1-964)
T1 sequence: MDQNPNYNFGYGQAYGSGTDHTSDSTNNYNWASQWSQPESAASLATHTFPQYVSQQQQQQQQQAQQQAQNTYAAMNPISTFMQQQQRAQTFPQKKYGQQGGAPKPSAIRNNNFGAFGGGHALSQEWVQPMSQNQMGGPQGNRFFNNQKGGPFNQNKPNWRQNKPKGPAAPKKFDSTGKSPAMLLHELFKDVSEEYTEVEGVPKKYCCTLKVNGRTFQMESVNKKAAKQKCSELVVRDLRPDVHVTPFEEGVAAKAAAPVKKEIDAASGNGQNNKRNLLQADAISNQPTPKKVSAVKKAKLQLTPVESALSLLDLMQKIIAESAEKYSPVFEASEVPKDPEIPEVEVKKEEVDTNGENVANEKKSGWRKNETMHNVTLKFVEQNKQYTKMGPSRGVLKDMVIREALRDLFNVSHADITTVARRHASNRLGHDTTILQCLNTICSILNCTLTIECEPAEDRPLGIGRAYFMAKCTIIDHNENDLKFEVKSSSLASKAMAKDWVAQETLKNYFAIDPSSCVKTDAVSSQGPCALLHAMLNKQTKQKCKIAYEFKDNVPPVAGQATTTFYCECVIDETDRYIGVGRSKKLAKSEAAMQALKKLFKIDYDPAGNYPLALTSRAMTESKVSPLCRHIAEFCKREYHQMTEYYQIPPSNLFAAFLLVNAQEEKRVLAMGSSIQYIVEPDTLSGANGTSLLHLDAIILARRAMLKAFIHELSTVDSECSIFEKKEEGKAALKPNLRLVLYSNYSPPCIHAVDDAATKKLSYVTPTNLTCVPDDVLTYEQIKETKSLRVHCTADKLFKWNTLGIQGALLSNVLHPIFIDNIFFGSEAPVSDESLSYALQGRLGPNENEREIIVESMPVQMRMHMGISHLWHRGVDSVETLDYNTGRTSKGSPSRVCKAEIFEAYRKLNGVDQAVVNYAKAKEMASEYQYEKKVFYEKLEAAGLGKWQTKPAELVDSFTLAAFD
Test: EMSA; apparent Kd; EMSA: 20 pM dsRNA, 50 mM KCl, 10 mM Tris-HCl pH 8.0, 10% glycerol, 1 mM MgCl2, 0.5 mM DTT, on ice 30 min; native 6% gel, 0.5x TBE, 4 C
Settings: protein: recombinant; tags: N-terminal 6xHis (TEV site); label: 5' 32P on ssRNAs (PNK); imperfect duplex; printed strands 45 and 46 nt

B1: lam-2 3'UTR 46 bp dsRNA (dsRNA)
RNA 1: AGACACACAUACAAAAUUUACAAAAAUUGUUAAUUGACAAAAUAC
RNA 2: GUGUUUUGCCAAUUAACGAUUUUUUGUAAAUUUUAUAUGUGUCUCU
**Q.** B1 was tested. Which Kd did it give?
**A.** 1.75 ± 0.15 nM
